Laboratory results as given in patent publication US20200138716A1, “COMPOSITIONS AND METHODS FOR INDUCING NANOPARTICLE-MEDIATED MICROVASCULAR EMBOLIZATION OF TUMORS” (Poseida Therapeutics, Inc., priority 2014, published 2020).
Where two headings read alike, the source gives them in different places.

Assays:
[1] = CuFL1A fluorescence NO sensor assay in solution; type: biochemical; conditions: for CuFL1A fluorescence on addition of DEANO: DEANO added to the solution
Procedure: In various studies to test these potential mechanisms, PEM may be incubated with a NO probe. […] When non-emissive CuFL1A reacts with NO, Cu(II) is reduced to Cu(I), among other changes, to produce fluorescent FL1A-NO. In this manner, CuFL1A may be used as an NO sensor activated by fluorescence to assess the relative NO levels in solution. In various studies, cultured umbilical vein endothelial cells may be incubated with CuFL1A and either PEM or a control in order to assess changes in NO levels in the extracellular environment. In various studies, luminal chemiluminescence due to the presence of reactive oxygen species may be used to assess the biological consequences of PEM-bound NO promotion of neutrophil activation. The FL1A ligands may be dissolved in spectroscopic grade DMSO to achieve a final concentration of the stock solution of around […]. To determine the exact concentration, the stock solution may be diluted in pH 7 aqueous buffer and the absorbance of the bands at 504 and 499 nm may be measured with E=4.6×104 M-1 cm-1. The absorbance value and dilution factor may be recorded and the exact concentration of the ligand in the stock solution may be calculated. The DMSO stock solution of the metal-free ligand may be aliquoted in 50 μL portions and stored at -80° C. The aliquots may be thawed and the absorbance of the band at 504 or 499 nm may be checked before use. […] The copper complex may be prepared fresh, immediately before cell incubation, using one of the frozen aliquots of the ligand stock solution. […] The unused portion of the solution may be discarded by the end of the day. In an example study, half of the free MetMb and […] suspensions were incubated with sodium sulfate to reduce the myoglobin back to its oxyMb form. The free oxyMb and oxyPEM suspensions were then dialyzed for 4h to remove salt, and the rest of the original metMb and […] suspensions were used as received. […] A 2× concentrated stock solution of metMb (50 mg/mL in PBS) and oxyMb (50 mg/mL in PBS) was prepared. The final concentrations of empty polymersomes, […] and oxyPEM were determined by UV-Vis spectrometry and ICP-OES. The final volume in each well was 200 μL, and therefore 100 μL of each solution was added per well, thus diluting these original stock solutions by half. Fluorescence was measured various time points for each condition.

[2] = tested on: human umbilical vein endothelial cells (HUVECs); assay: CuFL1A fluorescence, extracellular NO of cultured HUVECs; type: cell-based; conditions: for effect of further additions of DEANO on CuFL1A emission: DEANO added; for CuFL1A fluorescence compared to extracellular environment of HUVECs: no DEANO
Procedure: Cells may be incubated with 1 μM or less, relative to total concentration, of the NO sensor in PBS buffer or a growth medium for imaging. Concentration may be adjusted to reduce the fluorescent signal intensity to desired levels. Imaging of extra-cellular NO may be performed directly in the growth medium for imaging, and images may be taken as often as needed following cell stimulation.
In another example study, pooled 4× passaged human umbilical vein endothelial cells (HUVECs) were grown in Corning Costar 96 well white plates with clear bottoms in EBM-2 media to 80-90% confluence. Half of the free metMb and metPEM suspensions were incubated with sodium sulfate to reduce the myoglobin back to oxyMb form. The free oxyMb and oxyPEM suspensions were then dialyzed for four hours to remove salt. The rest of the original metMb and metPEM suspensions were used as received.
A 4× concentrated FL1A stock solution (10 μM in PBS+gluc+ca+mg/DMSO), a 4× concentrated DEANO stock solution (200 μM in 10 mM NaOH), and a 4× concentrated LNNA stock solution (400 μM in PBS+glu+ca+mg) were prepared so that 50 μL of each was added per well to a final and consistent volume of 200 μL per well.
A 2× concentrated stock solution of metMb (50 mg/mL in PBS+gluc+ca+mg) and 2× concentrated oxyMb (50 mg/mL in PBS+gluc+ca+mg) solution were also prepared. […] Fluorescence readings were obtained from each well following a set 30-minute incubation period with each of the experimental groups.

[3] = background values; cited from earlier work
[4] = Oxygen equilibrium binding curves (Hemox Analyzer, Hill model); conditions: 37° C.; partial pressure of O2 at 50% saturation
Procedure: Oxygen equilibrium binding curves of PEM and free Mb dispersions may be measured using a Hemox™ Analyzer at physiological temperature (37° C.). In brief, samples may be allowed to saturate to a pO2 of 147 mm Hg using compressed air and then deoxygenated using a compressed nitrogen stream. UV-Vis absorbance measurements of oxygenated and deoxygenated samples may be recorded as a function of pO2 via dual wavelength spectroscopy. Oxygen-PEM/myoglobin equilibrium curves may be fit to a four-parameter (A0, A∞, P50, n) Hill model:
in which A0 and A∞ represent the absorbance at 0 mm Hg and at full O2 saturation, respectively. The pO2 represents the partial pressure of O2, and P50 represents the partial pressure of O2 where PEM/Mb is 50% saturated with oxygen. Lastly, ‘n’ represents the cooperativity coefficient of PEM/Mb. […] The lower O2 affinity (higher P50) of PEM than free myoglobin may be attributed to the shielding effect of the polymersome membrane, which was further found to delay the kinetics of O2 binding to PEM.

HUVECs = assay: Luminol chemiluminescence (reactive oxygen species) with HUVECs alone; type: cell-based, human; conditions: HUVECs without neutrophils, 30 minutes
Procedure: (§1) In another example study, similar to the previous study, pooled 4× passaged human umbilical vein endothelial cells (HUVECs) were grown in Corning Costar 96 well white plate with clear bottoms in EBM-2 media to 80-90% confluence. Half of the free metMb and […] suspensions were incubated with sodium sulfate to reduce the myoglobin back to oxyMb form. The free oxyMb and oxyPEM suspensions were then dialyzed for four hours to remove salt. The rest of the original metMb and […] suspensions were used as received. […] A 2× concentrated stock solution of metMb (50 mg/mL in PBS+gluc+ca+mg) and 2× concentrated stock of oxyMb (50 mg/mL in PBS+gluc+ca+mag) were prepared. The final concentrations of empty polymersome, […], and oxyPEM were determined by UV-Vis spectrometry and ICP-OES. […] Further, 600 μM of a luminol solution in media containing 18.75 μ/mL horseradish peroxidase (HRP) was prepared, with final concentrations in assay wells of around 120 μM luminol and 3.75 μ/mL HRP. […] A luminometor was used to continuously measure instantaneous reactive oxygen species generation after addition of each treatment administered to the HUVECs with and without neutrophils (total assay time 30 minutes). At the end of the study, sample supernatant were aliquoted and the cells were fixed and frozen for future myeloperoxidase assays or MPO ELISAs to look at degranulation.

[5] = tested on: human neutrophils incubated with HUVECs; assay: Luminol chemiluminescence, neutrophil activation on HUVECs; type: cell-based; conditions: for generation of reactive oxygen species compared to luminol control: neutrophils with HUVECs, 30 minutes, maximal concentrations (25 mg/mL polymer or protein; metPEM 1.3 mg/mL metMb, 23.5 mg/mL polymer)
Procedure: as §1, with “received. Further, a ficoll-paque density gradient separation was used to purify fresh human neutrophils and re-suspend in media at a concentration of 6×10^6 neutrophils/mL. In the assay, […] aliquots were added per well, with a final volume of 200 μL per well, as in the study above.” for “received.”

[6] = no DEANO, higher concentrations (e.g. 25 mg/mL metMb)

| Molecule | P50 [3] | affinity for oxygen / oxygen tension of release [3] [mmHg] | CuFL1A fluorescence on addition of DEANO [1] | CuFL1A fluorescence compared to its intensity in PBS [1, 6] | effect of further additions of DEANO on CuFL1A emission [2] | CuFL1A fluorescence compared to extracellular environment of HUVECs [2] | generation of reactive oxygen species (luminol chemiluminescence) (HUVECs) | generation of reactive oxygen species compared to luminol control [5] | also measured |
| --- | --- | --- | --- | --- | --- | --- | --- | --- | --- |
| CCN(CC)/[N+]([O-])=N/O.CCNCC [DEANO, diethylamine NO, reference compound] | – | – | – | – | – | – | – | – | CuFL1A fluorescence compared to its intensity in PBS ([1]; solution, no cells): around seven-fold; increase in CuFL1A emission in extracellular environment of HUVECs ([2]; 30-minute incubation): ~1.5 fold |
| hemoglobin A: Normal adult hemoglobin A | 26.5 mmHg | – | – | – | – | – | – | – | – |
| hemoglobin: oxygen-transporting protein in human red blood cells | 25-50 mmHg | 20 to 50 | – | – | – | – | – | – | – |
| free Mb: free (unencapsulated) myoglobin (protein, UniProt P68082 2-154, looked up) Myoglobin: GLSDGEWQQVLNVWGKVEADIAGHGQEVLIRLFTGHPETLEKFDKFKHLKTEAEMKASEDLKKHGTVVLTALGGILKKKGHHEAELKPLAQSHATKHKIPIKYLEFISDAIIHVLHSKHPGDFGADAQGAMTKALELFRNDIAAKYKELGFQG | 2.75 mmHg | 2 to 3 | – | – | – | – | – | – | P50 [4]: ~2 mm Hg |
| oxyMb: oxygenated myoglobin, free protein (protein, UniProt P68082 2-154, looked up, oxygenated form, oxygenated myoglobin, free protein) Myoglobin: GLSDGEWQQVLNVWGKVEADIAGHGQEVLIRLFTGHPETLEKFDKFKHLKTEAEMKASEDLKKHGTVVLTALGGILKKKGHHEAELKPLAQSHATKHKIPIKYLEFISDAIIHVLHSKHPGDFGADAQGAMTKALELFRNDIAAKYKELGFQG | – | – | did not augment CuFL1A fluorescence | markedly decreased to baseline values | not able to mitigate | diminished | do not, in and of themselves, result in the generation of reactive oxygen species | statistically significant increase | CuFL1A fluorescence compared to its intensity in PBS ([1]; no DEANO, low concentrations (metMb up to 5 mg/mL)): greater; effect of DEANO addition on neutrophil activation ([5]; DEANO added): did not mitigate the levels of neutrophil activation |
| metMb: metmyoglobin, free protein (protein, UniProt P68082 2-154, looked up, met (ferric) form, metmyoglobin, free protein) Myoglobin: GLSDGEWQQVLNVWGKVEADIAGHGQEVLIRLFTGHPETLEKFDKFKHLKTEAEMKASEDLKKHGTVVLTALGGILKKKGHHEAELKPLAQSHATKHKIPIKYLEFISDAIIHVLHSKHPGDFGADAQGAMTKALELFRNDIAAKYKELGFQG | – | – | the degree of amplification in CuFL1A emission was lower | dramatically reduced | only able to partially mitigate | diminished | do not, in and of themselves, result in the generation of reactive oxygen species | no appreciable generation of reactive oxygen species | total oxidative burst (integrated luminol chemiluminescence), neutrophil activation ([5]; 30 minute incubation): did not have any effects |
